The results in this text go back to patent US20160024208A1 (Regeneron, published 2016).

The target of assay [1] is T1, full-length human Nav1.7 fused at its N-terminus to GFP, expressed in HEK293 cells (human, UniProt Q15858 1-1988). Put plainly: cell-based or functional assay.
For assay [2], the target named is T2, N-Term Biotin Nav1.7 (3-1) peptide, mulatta (mulatta (monkey), not fully specified; N-terminal biotin attached via a G4S linker).
T2 construct: Synthetic peptide; also called Mulatta Nav1.7 3-1 N-term biotin; monkey
T2 peptide: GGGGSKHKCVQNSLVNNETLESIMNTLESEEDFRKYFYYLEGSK
Put plainly: SPR, captured antibody, peptide analyte. As to the method:
(§1) The binding affinities of anti-Naᵥ 1.7 antibodies to Naᵥ 1.7 loop peptides were determined by Biacore. For monovalent kinetic experiments, antibodies were captured through the Fc region via a goat anti-Fc-coupled biosensor surface, and the peptides (as analyte) were injected over this captured antibody surface. For bivalent (avidity-driven) kinetic experiments, biotinylated peptides corresponding to the Naᵥ 1.7 3-1, 3-3, or paddle loop sequences were captured on a NeutrAvidin sensor surface, and anti-Naᵥ 1.7 antibodies (as analyte) were injected over this surface. Following the capture step, each analyte was individually injected at several concentrations over its respective capture surface, and changes in bound surface units (RU) were monitored. The dissociation rate is independent of the concentration of analyte used in the experiment, and the dissociation rate constant (kd) was determined from the change in antibody-bound analyte RU over time. The Biacore kinetic data were obtained using a double referencing procedure. The double referencing was conducted by first subtracting any interaction of the analyte over the reference surface (i.e., the anti-Fc coupled surface alone or the NeutrAvidin surface alone), thereby correcting for nonspecific binding to capture surface and for refractive index changes. Control buffer injections (no analyte) over the antibody- or peptide-captured surfaces were also performed to allow subtraction of RU signal changes resulting from the natural dissociation of captured binding partner from the sensor surface. The kinetic parameters were obtained by globally fitting the data for all concentrations tested for a given peptide or antibody to a 1:1 binding model using Biacore T100 Evaluation Software version 2.0.2. The KD was calculated as the dissociation rate constant divided by the association rate constant (KD=kd/kₐ). The dissociative half-life (t_{1/2}) was calculated from the dissociation rate constant (t_{1/2}=In2/kd).

Assay [3] deals with T3, N-Term Biotin Nav1.7 (3-1) peptide, mouse (mouse, not fully specified; N-terminal biotin attached via a G4S linker).
T3 construct: Synthetic peptide; also called Mouse Nav1.7 3-1 N-term biotin
T3 peptide: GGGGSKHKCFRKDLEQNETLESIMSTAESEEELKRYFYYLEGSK
In words: SPR, captured antibody, peptide analyte. As to the method:
as §1

Assay [4] addresses T4, Native Nav1.7 (3-1) peptide, human (human).
T4 construct: Synthetic peptide (Celtek), unbiotinylated; also called Human Nav1.7 3-1 native; Nav1.7 3-1 native peptide
T4 peptide: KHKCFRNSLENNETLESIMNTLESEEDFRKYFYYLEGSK
In words: SPR, captured antibody, peptide analyte. As to the method:
as §1

In assay [5] the target is T5, Native Nav1.7 (3-1) peptide, rat (rat).
T5 construct: Synthetic peptide; also called Rat Nav1.7 3-1 native
T5 peptide: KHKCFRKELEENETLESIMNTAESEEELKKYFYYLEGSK
Put plainly: SPR, captured antibody, peptide analyte. As to the method: as §1

In assay [6] the target is T6, C-term Biotin Nav1.7 (3-1) peptide, human (human, not fully specified; C-terminal biotin attached via a G4S linker).
T6 construct: Synthetic peptide; also called Human Nav1.7 3-1 C-term biotin
T6 peptide: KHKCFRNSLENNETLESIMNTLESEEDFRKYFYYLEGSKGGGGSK
In words: SPR, captured biotin-peptide, antibody analyte. As to the method: as §1

The target in assay [7] is T1, full-length human Nav1.7 fused at its …. Put plainly: flow cytometry; % stained hNav1.7-GFP-HEK293 minus parental HEK293. As to the method:
The binding of anti-Naᵥ 1.7 human antibodies to full-length Naᵥ 1.7 expressed in HEK293 cells was determined by flow cytometry (FACS). HEK293 cells were stably-transfected with full-length human Nav1.7 fused at its N-terminus to the green fluorescent protein (GFP) to generate cell line hNaᵥ 1.7-GFP-HEK293. Antibody binding to the transfected cells overexpressing Naᵥ 1.7 was compared to binding to the parental HEK293 cell line. To perform the binding experiments, adherent cells were collected using 1 mM EDTA in PBS, washed and re-suspended in cold PBS containing 5% FBS. For each binding experiment, the anti-Naᵥ 1.7 antibody (at concentrations ranging from 1 nM to 13 nM), was added to 250,000 cells in 500 μL of PBS with 5% FBS. After incubation for 20 minutes on ice, the secondary antibody, recognizing either human-Fc and conjugated to cyanine 5 (Cy5) or recognizing mouse-Fc and conjugated to allophyocyanin (APC), was then added to the cell mixture at a final secondary antibody concentration of 1.7 nM. After incubating for 20 minutes on ice, the cells were resuspended in PBS+5% FBS and then sorted and analyzed on a flow cytometer to determine relative binding by the candidate antibodies. For FACS analysis, gating was applied to examine only healthy live cells in the antibody binding experiments, and percentage stained was recorded. Staining of secondary antibodies alone to Naᵥ 1.7-GFP-HEK293 cells gave low background signals (1-2%). Specific binding was measured as the percent binding to Naᵥ 1.7-GFP-HEK293 cells minus percent binding to parental HEK293 cells.

The target of assay [8] is T2, N-Term Biotin Nav1.7 (3-1) peptide, …. Put plainly: ELISA on coated peptide, antibody 1 ug/ml, OD450 grade. As to the method:
(§2) Anti-Naᵥ 1.7 antibodies were tested for their ability to bind to the Naᵥ 1.7 peptides. The various peptides were coated overnight onto 96-well Nunc Immunosorp plates at a concentration of 4 μg/mL in PBS, followed by blocking for 1 hour in a suitable blocking agent. For biotinylated peptides, avidin was first coated on Nunc Immunosorp plates at 2 μg/mL in PBS overnight, followed by blocking as described, and the plate was then coated with biotinylated peptides at a concentration of 0.4 μg/mL and incubated for 1 hour at room temperature. Purified anti-Naᵥ 1.7 antibodies were diluted to a final concentration of 0.1 μg/mL and 1.0 μg/mL and added to the wells of the coated microtiter plates followed by incubation for 1 hour at room temperature. Bound antibodies were detected with horseradish peroxidase (HRP) conjugated anti-mouse or anti-human IgG (Jackson Immuno Research Lab, West Grove, Pa.) depending on the antibody species and developed by colorimetric response using tetramethylbenzidine (TMB) substrate (BD Biosciences). Absorbance was read at OD₄₅₀ on a plate reader for 0.1 second.
(§3) Values in Table 11 represent absolute binding ranges (at OD450) to plate-coated peptides for antibodies added at 1 μg/ml as follows: OD450<0.2: −; 0.2<OD450<1: +; 1<OD450<2: ++; 2<OD450<4: +++; NT: Not Tested.

Assay [9] concerns the target T3, N-Term Biotin Nav1.7 (3-1) peptide, …. Described as above. As to the method: as §2, §3
Assay [10] concerns the target T5, Native Nav1.7 (3-1) peptide, rat. The description is as above. As to the method: as §2, §3
The target in assay [11] is T7, N-Term Biotin-Nav1.7 (3-1) peptide, human (human, not fully specified; N-terminal biotin attached via a G4S linker).
T7 construct: ELISA peptide
T7 peptide: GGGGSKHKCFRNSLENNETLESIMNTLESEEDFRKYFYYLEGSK
The description is as above. As to the method: as §2, §3

B1: H1H1008B (antibody, V domains shown)
VH: EVQLVQSGPGLVKSSETLSLKCTVSGGSISSSGYYWGWIRQPPGKGLEWIGSIHRSGSTFYNPSLKSRVTISVDTSKSQFSLRLTSVTAADTSVYFCGRHGRDYYYGMDVWGQGTTVTVSS
VL: DIQMTQSPSSVSASVGDRVTITCRSSQDINNWLVWYQQKPGKAPKVLIYGASRLQSGVPSRFSGSGSGTDFTLTISSLQPEDFATYYCQQANSFPLTFGGGTKLEIKR
notes: Fully human antibody; also called H4H1008B
As to B1, in [1], the “Current blocking (Average % inhibition), IonWorks Quattro, 223 nM antibody” value (“Current blocking (Average % inhibition)” below) amounted to 38%. The Kd in assay [2] came out at 1.11 nM; in assay [3], 14.8 nM; in [4], 4.31 nM; in assay [5], 4.67 nM; in assay [6], 0.123 nM. In addition, the t1/2 in assay [2] was 17.5 min; in assay [3] it was 1.3 min; in assay [4], 4 min; in [5], 3.1 min; in assay [6], 84.2 min. In assay [7], the “% Binding Nav1.7” value worked out at 12.5%. Further, the OD450 in [8], in [9], in [10] and in assay [11] was 2 to 4 od throughout.

B2: H1H1019B (antibody, V domains shown)
VH: EVQLVESGPGLVKPSETLSLKCTVSGGSIRSSGYYWGWIRQPPGKGLEWIGSIHHSGSTYYNPSLKSRVTISVDTSKSQFSLRLTSVTAADTAVYYCGRHGRDYYYGMDVWGQGTTVTVSS
VL: AIQLTQSPSSLSASVGDRVTITCRASQDINNWLVWYQQKPGKAPKLLIYAASSLQSGVPSRFSGSGSGTDFTLTISSLQPEDFATYYCQQANSFPLTFGGGTKVDIKR
In the case of B2, in [1], the “Current blocking (Average % inhibition)” value came out at 24%. Moreover, the Kd is 12.6 nM in assay [2]; 351 nM in [3]; 113 nM in assay [4]; 101 nM in [5]; 0.231 nM in assay [6]. Further, the t1/2 in assay [2] is 2.8 min; in [3], 0.083 min; in [4], 0.44 min; in [5] it was 0.11 min; in assay [6], 29.8 min. Further, the “% Binding Nav1.7” value in assay [7] is 28.1%. Moreover, the OD450 in assay [8], in [9], in assay [10] and in [11] was 2 to 4 od throughout.

B3: H4H367B (antibody, V domains shown)
VH: QVQLVQSGGGVVQPGRSLRLSCAASGFSFSSFGMHWVRQAPGKGLEWVAVISYGGINKHYSDSVKGRFTISRDDSKNTLYLQMNSLRAEDTAVYYCAKREGYRYAYDYWGQGTLVTVSS
VL: DIQMTQSPSSLSASVGDRVTITCRASQGISNYLAWFQQKPGKAPKSLIYGASSLQSGVPSKFSGSGSGTDFTLTISSLQPEDFATYYCQQYNSYPLTFGGGTKVEIKR
With B3, the “Current blocking (Average % inhibition)” value in assay [1] is -35%. The Kd in assay [2] was 0.63 nM; in assay [3] it was 107 nM; in assay [4], 4.67 nM; in [5], 88 nM; in assay [6], 0.341 nM. Further, the t1/2 in assay [2] is 23.7 min; in assay [3], 0.59 min; in [4], 10.5 min; in assay [5], 0.42 min; in assay [6] it was 94 min. Also, the “% Binding Nav1.7” value in assay [7] was determined as 15.8%. Moreover, the OD450 in [8], in assay [9], in [10] and in [11] was 2 to 4 od in each case.
